Assay results published in patent US20240218079A1, “PLASMA KALLIKREIN ANTIBODIES AND USES THEREOF” (Astria Therapeutics, Inc., priority 2021, published 2024).
Blank lines part the entries; values can stand above or below the molecule they belong to.

Columns and labels:
pkal (1 nM enzyme) = target: T1, pkal (1 nM enzyme) (Homo sapiens, UniProt P03952); assay: Inhibition of pkal enzymatic activity in a fluorogenic peptide substrate assay (screening); assay type: biochemical
T1 construct: active human plasma kallikrein (pkal, Enzyme Research Labs, South Bend, IN); purchased Enzyme Research Labs, South Bend, IN
T1 sequence (P03952 391-638 limits assumed): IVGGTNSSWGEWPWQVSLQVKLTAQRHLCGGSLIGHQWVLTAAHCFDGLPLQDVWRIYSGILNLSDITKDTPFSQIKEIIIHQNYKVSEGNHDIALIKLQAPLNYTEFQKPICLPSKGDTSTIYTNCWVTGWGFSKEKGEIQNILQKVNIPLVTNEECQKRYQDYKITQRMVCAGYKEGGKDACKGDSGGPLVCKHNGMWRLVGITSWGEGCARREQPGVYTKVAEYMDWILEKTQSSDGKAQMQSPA
T1 sequence (P03952 20-390 limits assumed): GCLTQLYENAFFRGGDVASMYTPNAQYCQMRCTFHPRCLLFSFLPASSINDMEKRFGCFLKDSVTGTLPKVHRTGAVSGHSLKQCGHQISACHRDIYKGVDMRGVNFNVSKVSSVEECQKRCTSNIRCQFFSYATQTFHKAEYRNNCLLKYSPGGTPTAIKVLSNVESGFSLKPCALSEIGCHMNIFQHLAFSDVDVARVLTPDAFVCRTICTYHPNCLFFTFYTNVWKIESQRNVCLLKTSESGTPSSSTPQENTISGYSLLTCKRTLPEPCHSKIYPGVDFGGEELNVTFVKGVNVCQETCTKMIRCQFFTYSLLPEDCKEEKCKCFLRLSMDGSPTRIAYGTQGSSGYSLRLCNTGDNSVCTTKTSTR
Procedure: (§1) Monoclonal IgGs were retested for pkal and prekal binding by ELISA, and were screened for inhibition of pkal (1 nM enzyme) enzymatic activity in a fluorogenic peptide substrate assay (Kenniston et al. J Biol Chem. 2014 Aug. 22; 289(34):23596-608). […] This hybridoma was sequenced to determine heavy and light chain variable domains (SEQ ID NO: 1 and SEQ ID NO: 2; MAb1). […] The nucleic acid sequence of the heavy chain variable domain of MAb1 is provided as SEQ ID NO: 33 and the nucleic acid sequence of the light chain variable domain of MAb1 is provided as SEQ ID NO: 34.

human pkal and prekal = assay: ELISA for binding to human pkal and prekal; conditions: monoclonal IgG from hybridoma
Procedure: Five prekallikrein (prekal) knock-out mice were immunized via the hock route with active human plasma kallikrein (pkal, Enzyme Research Labs, South Bend, IN). When serum titers indicated a robust immune response, draining lymph nodes were harvested, and lymphocytes were fused with a myeloma line using electrofusion. Resulting hybridomas were plated in thirty 384-well plates, and screening by ELISA for binding to human pkal and prekal. Hybridoma lines with preferential binding to pkal were subcloned and expanded.
as §1

plasma kallikrein (pkal) = target: T2, plasma kallikrein (pkal) (Homo sapiens, UniProt P03952); assay: HMWK cleavage functional assay (bradykinin release measured by ELISA); assay type: biochemical; conditions: inhibition of HMWK cleavage by pkal
T2 construct: active human plasma kallikrein (pkal, Enzyme Research Labs, South Bend, IN); purchased Enzyme Research Labs
T2 sequence (P03952 20-390 limits assumed): as above
T2 sequence (P03952 391-638 limits assumed): as the sequence (P03952 391-638 limits assumed) above
Procedure: Specifically, the ability of each antibody to inhibit pkal cleavage of its natural substrate, High Molecular Weight Kininogen (HMWK) was observed. In these experiments 10 or 30 nM pkal was preincubated with inhibitory antibodies for 1 hr at RT, then 600 nM HMWK was added and incubated for 20 minutes and the reaction was quenched by adding 0.5 μM AEBSF. The concentration of bradykinin (BK) released from HMWK as catalyzed by pKal was measured using 1/100 dilution of the reaction product in a commercial ELISA kit (Enzo, Farmingdale, NY).
The HMWK assay parameters were physiologically relevant as the concentration of high molecular weight kininogen used is the concentration that circulates in humans and the concentration of plasma kallikrein used is in the range of what has been estimated in plasma from patients with hereditary angioedema (HAE) during an attack.
The IC90 values for the antibodies were also determined to provide an index of relative potency. In HAE, the therapeutically relevant level of inhibition to prevent HAE attacks is thought to be approximately 90% inhibition of plasma kallikrein. This corresponds to a measurement referred to as IC90, which is the concentration of an agent that results in 90% inhibitory effect.

human plasma kallikrein = target: T3, human plasma kallikrein (Homo sapiens, UniProt P03952); assay: SPR binding to human plasma kallikrein; conditions: pH 7.4, 37° C.
T3 construct: active human plasma kallikrein (pkal, Enzyme Research Labs, South Bend, IN); purchased Enzyme Research Labs
T3 sequence (P03952 20-390 limits assumed): as the sequence (P03952 20-390 limits assumed) above
T3 sequence (P03952 391-638 limits assumed): as the sequence (P03952 391-638 limits assumed) above
Procedure: Kinetic properties and selectivity of lead pkal antibodies were examined by SPR at 37° C. and either pH 7.4 or pH 6.0.

human FcRn = target: T4, human FcRn (Homo sapiens, UniProt P55899); assay: hFcRn binding by SPR (Biacore T200)
T4 construct: purchased Sino Biological CT009-H08H
Procedure: IgG1 was used as a control antibody. The antibody samples were assessed for FcRn binding via SPR using a Biacore T200. The Biacore chip was a CMS coupled with human FcRn (Sino Biological, Cat. No. CT009-H08H). Running buffer used was PBS 0.05% P20 and pH 6 or pH 7.4.

[1] = Cynomolgus pharmacokinetic studies; assay type: in vivo, cynomolgus monkey; conditions: male cynomolgus, IV infusion 5 mg/kg
Procedure: These studies of these antibodies were conducted concurrently, but were independent studies rather than a head-to-head comparison. Cynomolgus monkeys, LM-naïve or naive, 3.0-4.0 kg, male, N=18, were purchased from Hainan Jingang Biotech Co. LTD. The antibodies were prepared in 20 mM Histidine, 150 mM NaCl, 0.01% Tween 80, pH 6.5. In these studies, all antibodies were administered to male cynomolgus monkeys (N=3) via IV infusion over 10 min at 5 mg/kg. Blood was collected from cephalic and saphenous veins into pre-cooled citrate acid tubes at each time point. […] Blood samples were put on wet ice and centrifuged at 4° C. to obtain plasma within 15 minutes of sample collection. Plasma samples were stored at approximately −70 C. Presence of each anti-plasma kallikrein antibody in the plasma samples was determined via ELISA using a plate coated with anti-human antibody as the capture agent and human IgG-heavy and light chain monkey-adsorbed antibody as the detection reagent (Southern Biotech, Cat #: 2049-01 and Bethyl, Cat #A80-319P). ELISA plates were read using a SpectraMax M2.

trypsin, human pancrease = assay: Trypsin inhibition assay; assay type: biochemical; conditions: dilution series starting at 1 μM
Procedure: Fluorescence intensity was measured every 5 minutes. Gabexate mesylate was used as a positive control, in a dilution series starting at 1 μM. The assay was performed in duplicate.

B1: MAb2: optimally humanized variant VH5_VL4; VH SEQ ID NO: 3, VL SEQ ID NO: 4 (antibody, V domains shown)
VH: QVQLVQSGAEVKKPGSSVKVSCKASGYAFSSYWMNWVRQAPGQGLEWIGQIYPGDDDTNYNGKFQGRVTITVDKSTTTAYMELSSLRSEDTAVYFCAGSLMVTTGAPFDYWGQGTTVTVSS
VL: DIQMTQSPSSLSASVGDRVTITCKASQDVGIAVAWYQQKPGKAPKFLIYWASTRHTGVPDRFSGSGSGTDFTLTISSLQPEDFATYFCQQYRSYPLTFGQGTKLEIK
inhibition of pkal enzymatic activity (in words) (pkal (1 nM enzyme)): maintained both binding affinity and inhibitory potency

B3: MAb1: murine hybridoma lineage 24L13 anti-plasma kallikrein antibody; VH SEQ ID NO: 1, VL SEQ ID NO: 2 (antibody, V domains shown)
VH: QVQLQQSGAELVKPGASVKISCKASGYAFSSYWMNWVKQRPGEGLEWIGQIYPGDDDTNYNGKFKGKATLTVDKSSTTAYMQLSSLTSEDSAVYFCAGSLMVTTGAPFDYWGQGTTLTVSS
VL: DIVMTQSHKFMSTSVGDRVSITCKASQDVGIAVAWYQQKPGQSPKFLIYWASTRHTGVPDRFTGSGSGTDFTLTIRNVQSEDLSDYFCQQYRSYPLTFGSGTKLELK
selectivity for pkal over prekal by ELISA (human pkal and prekal): selective for pkal | inhibition of pkal enzymatic activity (in words) (pkal (1 nM enzyme)): inhibitory

Second part, led by results:

inhibition of pkal enzymatic activity (in words) (pkal (1 nM enzyme)): maintained selectivity and activity
B2: MAb3: humanized, liability fixed VH SEQ ID NO: 5 with CDR2-optimized VL SEQ ID NO: 6 (antibody, V domains shown)
VH: QVQLVQSGAEVKKPGSSVKVSCKASGYAFSSYWMNWVRQAPGQGLEWIGQIYPGDDDTNYNAKFQGRVTITVDKSTTTAYMELSSLRSEDTAVYFCAGSLMVTTGAPFDYWGQGTTVTVSS
VL: DIQMTQSPSSLSASVGDRVTITCKASQDVGIAVAWYQQKPGKAPKFLIYYASHRGWGVPDRFSGSGSGTDFTLTISSLQPEDFATYFCQQYRSYPLTFGQGTKLEIK

Hill slope (plasma kallikrein (pkal)): ~2 | Ka (human plasma kallikrein): 69000 M⁻¹ s⁻¹ | Kd (human plasma kallikrein): 7.3e-05 s⁻¹ | hFcRn Binding Ka (human FcRn; pH 6.0): 184000 M⁻¹ s⁻¹ | hFcRn Binding Kd (human FcRn; pH 6.0): 0.0277 s⁻¹ | hFcRn binding at pH 7.4 (human FcRn; pH 7.4, data not shown): no evidence of binding
B4: MAb4-YTE: MAb4 with M252Y, S254T, T256E; heavy chain SEQ ID NO: 10, light chain SEQ ID NO: 8 (antibody)
heavy: QVQLVQSGAEVKKPGSSVKVSCKASGYAFSSYWMNWVRQAPGQGLEWIGQIYPGDDDTNYNAKFQGRVTITVDKSTTTAYMELSSLRSEDTAVYFCAGSLMVTTGAPFDYWGQGTTVTVSSASTKGPSVFPLAPSSKSTSGGTAALGCLVKDYFPEPVTVSWNSGALTSGVHTFPAVLQSSGLYSLSSVVTVPSSSLGTQTYICNVNHKPSNTKVDKRVEPKSCDKTHTCPPCPAPELLGGPSVFLFPPKPKDTLYITREPEVTCVVVDVSHEDPEVKFNWYVDGVEVHNAKTKPREEQYNSTYRVVSVLTVLHQDWLNGKEYKCKVSNKALPAPIEKTISKAKGQPREPQVYTLPPSREEMTKNQVSLTCLVKGFYPSDIAVEWESNGQPENNYKTTPPVLDSDGSFFLYSKLTVDKSRWQQGNVFSCSVMHEALHNHYTQKSLSLSPG
light: DIQMTQSPSSLSASVGDRVTITCKASQDVGIAVAWYQQKPGKAPKFLIYYASHRGWGVPDRFSGSGSGTDFTLTISSLQPEDFATYFCQQYRSYPLTFGQGTKLEIKRTVAAPSVFIFPPSDEQLKSGTASVVCLLNNFYPREAKVQWKVDNALQSGNSQESVTEQDSKDSTYSLSSTLTLSKADYEKHKVYACEVTHQGLSSPVTKSFNRGEC
CI (mL/day/kg) (Mean ± SD) [1]: 1.44 ± 0.33 mL/day/kg | T ½ (days) (Mean ± SD) [1]: 33.6 ± 8.3 days | Vss (mL/kg) (Mean ± SD) [1]: 66.8 ± 6.1 mL/kg | terminal half-life [1]: approximately 34 days | inhibition of trypsin activity (trypsin, human pancrease): did not inhibit trypsin activity
